Assay [1] addresses AcrVA4. The experiment in a line: SEC-MALS.
Assay [2] has as its target Lachnospiraceae bacterium (ND2006) Cas12a (Lachnospiraceae bacterium (ND2006)). Kind of assay: SEC-MALS.

For AcrVA4 (natural protein), the stoichiometry N in assay [1] stood at 2. The stoichiometry N (AcrVA4 per LbCas12a-crRNA) in assay [2] came out at 2.

As usually defined, the stoichiometry N is a count of units in the complex or per binding partner.

The values above are taken from article PMC6449189.
